Data: paper PMC9592637, “Functional characterization and transcriptional repression by Lacticaseibacillus paracasei DinJ-YafQ” (Applied Microbiology and Biotechnology, 2022)

B1: His-tagged DinJ (L. paracasei antitoxin DinJ, N-terminal hexa-His tag) (natural protein)
chain: MSNEKRETRLSIRIDPALKEAAQNVANDMGMDLSTAVNMFLAKIVKDHALPFTPTSLPAETLQALKEAKSSRVLKRYRTPEVMWKDLEV

Tests used:
[1] = system: DinJ (Lacticaseibacillus paracasei 4366); assay: EMSA; conditions: KDapp, Hill n 3.7 ± 0.2; salmon sperm DNA competitor; EMSA: 2 nM DNA, 128 ng salmon sperm DNA in 10 uL, 50 mM Tris-HCl pH 7.5, 50 mM KCl, 5% glycerol, room temperature 10 min, 6% native PAGE in TBE; RNAP …
[2] = biological target: the molecule itself; assay: cross-linking; glutaraldehyde 0.1%, then SDS-PAGE; DinJ at 4 and 10 uM, DinJ-YafQ at 2 and 4 uM

Row | Molecule | Kd [1] | stoichiometry N [2]
1 | 194-bp dinJ-yafQ promoter fragment | 61 nM | 
2 | B1 |  | 2
